Laboratory results published in paper PMC8385704 (2021).

Target: His-tagged recombinant human ACE2 protein (residues 19-740), dimeric (human, UniProt Q9BYF1 19-740)
Test: BLI

His-tagged recombinant human ACE2 protein (residues 19-740), dimeric, sequence (Q9BYF1 19-740): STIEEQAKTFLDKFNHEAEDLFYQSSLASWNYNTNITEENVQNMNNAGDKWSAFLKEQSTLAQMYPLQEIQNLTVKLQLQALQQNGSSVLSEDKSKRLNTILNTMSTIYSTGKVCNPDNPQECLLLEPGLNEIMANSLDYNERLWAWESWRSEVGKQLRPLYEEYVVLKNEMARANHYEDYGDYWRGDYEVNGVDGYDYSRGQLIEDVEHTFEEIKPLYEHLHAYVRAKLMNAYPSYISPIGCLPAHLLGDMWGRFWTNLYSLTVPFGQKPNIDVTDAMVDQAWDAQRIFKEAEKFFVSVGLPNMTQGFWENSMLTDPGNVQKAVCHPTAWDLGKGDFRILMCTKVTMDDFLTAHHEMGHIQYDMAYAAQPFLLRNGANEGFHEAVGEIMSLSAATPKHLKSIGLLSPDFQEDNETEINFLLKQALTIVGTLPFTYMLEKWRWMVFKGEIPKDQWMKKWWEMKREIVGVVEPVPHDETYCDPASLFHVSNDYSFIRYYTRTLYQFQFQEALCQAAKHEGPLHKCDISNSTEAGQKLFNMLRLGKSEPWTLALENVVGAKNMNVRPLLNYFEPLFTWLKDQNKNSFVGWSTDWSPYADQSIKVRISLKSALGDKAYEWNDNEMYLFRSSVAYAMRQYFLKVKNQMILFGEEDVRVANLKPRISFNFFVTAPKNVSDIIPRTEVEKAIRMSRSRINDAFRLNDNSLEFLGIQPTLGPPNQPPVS

B1: monoclonal antibody 3E8 (antibody, V domains shown)
VH: EVQLEESGAELVRPGASVKISCKAFGYTFTNHHINWMKQRPGQGLDWIGYVNPYNDYTKYSQNFKGKATLSVDRSSSTAYMELSSLTSEDSAVYYCARWRDYDRDWYFDVWGAGTTVIVSS
VL: DIVMTQSPATLSVTPGDRVSLSCRASQSIRDYLYWYQQKSHESPRLLIKYASQSISGIPSRFSGSGSGSDFTLSINSVEPEDVGVYYCQNGHSFPYTFGGGTKLEIK
Question: For B1, which koff is on record?
Answer: The koff was 0.000278 s⁻¹.
